Results from publication doi:10.1101/2020.01.07.896506 (bioRxiv, 2020).

Tests used:
native gel or EMSA = biological target: the molecule itself; test: native gel or EMSA
SEC = biological target: the molecule itself; test: SEC

B1: recombinant GRXS17 (glutaredoxin GRXS17, Arabidopsis thaliana) (natural protein, UniProt Q9ZPH2 1-488, looked up)
chain: MSGTVKDIVSKAELDNLRQSGAPVVLHFWASWCDASKQMDQVFSHLATDFPRAHFFRVEAEEHPEISEAYSVAAVPYFVFFKDGKTVDTLEGADPSSLANKVGKVAGSSTSAEPAAPASLGLAAGPTILETVKENAKASLQDRAQPVSTADALKSRLEKLTNSHPVMLFMKGIPEEPRCGFSRKVVDILKEVNVDFGSFDILSDNEVREGLKKFSNWPTFPQLYCNGELLGGADIAIAMHESGELKDAFKDLGITTVGSKESQDEAGKGGGVSSGNTGLSETLRARLEGLVNSKPVMLFMKGRPEEPKCGFSGKVVEILNQEKIEFGSFDILLDDEVRQGLKVYSNWSSYPQLYVKGELMGGSDIVLEMQKSGELKKVLTEKGITGEQSLEDRLKALINSSEVMLFMKGSPDEPKCGFSSKVVKALRGENVSFGSFDILTDEEVRQGIKNFSNWPTFPQLYYKGELIGGCDIIMELSESGDLKATLSE
Native gel or EMSA
  stoichiometry N: 2

B2: recombinant GRXS17-C33S (natural protein, Arabidopsis thaliana, UniProt Q9ZPH2 1-488, looked up)
chain: MSGTVKDIVSKAELDNLRQSGAPVVLHFWASWSDASKQMDQVFSHLATDFPRAHFFRVEAEEHPEISEAYSVAAVPYFVFFKDGKTVDTLEGADPSSLANKVGKVAGSSTSAEPAAPASLGLAAGPTILETVKENAKASLQDRAQPVSTADALKSRLEKLTNSHPVMLFMKGIPEEPRCGFSRKVVDILKEVNVDFGSFDILSDNEVREGLKKFSNWPTFPQLYCNGELLGGADIAIAMHESGELKDAFKDLGITTVGSKESQDEAGKGGGVSSGNTGLSETLRARLEGLVNSKPVMLFMKGRPEEPKCGFSGKVVEILNQEKIEFGSFDILLDDEVRQGLKVYSNWSSYPQLYVKGELMGGSDIVLEMQKSGELKKVLTEKGITGEQSLEDRLKALINSSEVMLFMKGSPDEPKCGFSSKVVKALRGENVSFGSFDILTDEEVRQGIKNFSNWPTFPQLYYKGELIGGCDIIMELSESGDLKATLSE
SEC
  binding result: binds

B3: recombinant GRXS17-C33S/C179S/C309S/C416S (natural protein, Arabidopsis thaliana, UniProt Q9ZPH2 1-488, looked up)
chain: MSGTVKDIVSKAELDNLRQSGAPVVLHFWASWSDASKQMDQVFSHLATDFPRAHFFRVEAEEHPEISEAYSVAAVPYFVFFKDGKTVDTLEGADPSSLANKVGKVAGSSTSAEPAAPASLGLAAGPTILETVKENAKASLQDRAQPVSTADALKSRLEKLTNSHPVMLFMKGIPEEPRSGFSRKVVDILKEVNVDFGSFDILSDNEVREGLKKFSNWPTFPQLYCNGELLGGADIAIAMHESGELKDAFKDLGITTVGSKESQDEAGKGGGVSSGNTGLSETLRARLEGLVNSKPVMLFMKGRPEEPKSGFSGKVVEILNQEKIEFGSFDILLDDEVRQGLKVYSNWSSYPQLYVKGELMGGSDIVLEMQKSGELKKVLTEKGITGEQSLEDRLKALINSSEVMLFMKGSPDEPKSGFSSKVVKALRGENVSFGSFDILTDEEVRQGIKNFSNWPTFPQLYYKGELIGGCDIIMELSESGDLKATLSE
SEC
  stoichiometry N: 2
